Reference: patent US20250002586A1 (CDR LIFE, published 2025)
Residue numbers refer to the chain shown, from its start.

Tests used:
[1] = target: T1, CD3 heterodimer (Acro Biosystems) (UniProt P07766 23-126); test: SPR (Biacore T200), CD3 heterodimer on HC30M chip; value given for the high affinity CD3 Fab
[2] = target: T1, CD3 heterodimer (Acro Biosystems); test: SPR (Biacore T200), CD3 heterodimer on HC30M chip; value given for the mid affinity CD3 Fab
[3] = target: T1, CD3 heterodimer (Acro Biosystems); test: SPR (Biacore T200), CD3 heterodimer on HC30M chip; value given for the low affinity CD3 Fab

T1 sequence (P07766 23-126, one chain of several): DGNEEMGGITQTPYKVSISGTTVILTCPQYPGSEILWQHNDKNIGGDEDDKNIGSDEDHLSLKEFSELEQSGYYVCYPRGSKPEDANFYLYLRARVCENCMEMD

B1: CDR-14 (bispecific antibody)
heavy: EVQLVESGGGLVQPGGSLRLSCAASGFTFSTYAMNWVRQAPGKGLEWVGRIRSKYNNYATYYADSVKGRFTISRDDSKNTLYLQMNSLRAEDTAVYYCVRHGNFGNSYVSWFAYWGQGTLVTVSSASTKGPSVFPLAPSSKSTSGGTAALGCLVKDYFPEPVTVSWNSGALTSGVHTFPAVLQSSGLYSLSSVVTVPSSSLGTQTYICNVNHKPSNTKVDKRVEPKSCGGGGSSYELTQPPSVSVSPGQTASITCTADTLSRSYASWYQQKPGQSPVLVIYRDTSRPSGIPERFSGSNSGNTATLTISGTQAMDEADYYCATSDGSGSNFQLFGGGTKLTVLGGGGGGSGGGGSGGGGSGGGGSESQVLESGGGSVQPGGSLRLSCTVSGFSLSNYAMSWVRQAPGKGLEYIGIVSSGGTTYYASWAKGRFTISKDTSKNTVYLQMNSLRAEDTASYYCAKDLYYGPTTYSAFNLWGQGTSVTVSS
light: QAVVTQEPSLTVSPGGTVTLTCRSSTGAVTTSNYANWVQQKPGQAPRGLIGGTNKRAPGVPARFSGSLLGGKAALTISGAQPEDEADYYCALWYSNHWVFGGGTKLTVLGTVAAPSVFIFPPSDEQLKSGTASVVCLLNNFYPREAKVQWKVDNALQSGNSQESVTEQDSKDSTYSLSSTLTLSKADYEKHKVYACEVTHQGLSSPVTKSFNRGECGGGGSSYELTQPPSVSVSPGQTASITCTADTLSRSYASWYQQKPGQSPVLVIYRDTSRPSGIPERFSGSNSGNTATLTISGTQAMDEADYYCATSDGSGSNFQLFGGGTKLTVLGGGGGGSGGGGSGGGGSGGGGSESQVLESGGGSVQPGGSLRLSCTVSGFSLSNYAMSWVRQAPGKGLEYIGIVSSGGTTYYASWAKGRFTISKDTSKNTVYLQMNSLRAEDTASYYCAKDLYYGPTTYSAFNLWGQGTSVTVSS
notes: no Fc
For B1, the Kd [1] was 1.2 nM.

B2: CDR-13 (bispecific antibody)
heavy: B1 heavy with N106D
light: B1 light with R23G, Q44K, A45S
notes: no Fc
B2 gave a Kd [2] of 11 nM.

B3: CDR-12 (bispecific antibody)
heavy: B1 heavy with Y55A, N106D
light: B1 light with R23G, Q44K, A45S
notes: no Fc
With B3 the Kd [3] was 54 nM.
